Test: yeast display, Sf9 membrane polyspecificity reagent, FACS + sequencing; frameworks hold sequencing errors
How it was run: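 Genes from sorted yeast were amplified by colony PCR, read by MiSeq 2 × 250 sequencing and filtered on CDR length. These cells carried a synthetic nanobody library in Saccharomyces cerevisiae BJ5465 and were sorted by FACS into low and high (top ~1%) gates on anti-HA and streptavidin fluorescence. Polyreactivity is labelled according to the gate of origin.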

Row | Sequence | polyreactivity (PSR sort gate)
1 | QVQLVESGGGLVQAGGSLRLSCAATGSILVYYAMGWSRQAPGKERELVAAISSGGSTNYADSVKGRFTISRDNAKNTVYLQMNSLKPEDTAVYYCDKESGWVGAIHYDYWGQGTQVTVSS | low polyreactivity
2 | QVQLVESGGGLVQAGGSLRLSCAATGSTFAKYAMCSYRQAPGKERELVASISGSGGSTYYADSVKGRFTISRDNAKNTFYLQMNSLIPEDTAVYYSAARRYVWYYWGQGTQVTVSW | high polyreactivity
3 | QVQLVESGGGLVQAGGSLRLSCAATGSTFDRYGMGWYRQAPGKERELVAAINSGDITNYADSVKGRFTISRDNAKNTVYLQMNSLKPEDTAVYYCNAGIRYFVVGRSSYDYWGQGTQVTVSS | low polyreactivity
4 | QVQLVESGGGLVQAGGSLRLSCAATGSTFIDNARGWYRQAPGKERELVAAINSSGGNTYYADSVKGRFTISRDNAKNTVYLQMNSLKPEDTAVYYCNAEFSVLYFYDYEYWGQGTQVTVSS | low polyreactivity
5 | QVQLVESGGGLVQAGGSLRLSCAATGSTFIFYAMGWYRQAPGKERELVAAISWSGGSTYYADSVKGRFTISRDNAKNTVYLQMNSLKPEDTAVYYCNARWSSWYIHSHYYYWGQGTQVTVSS | high polyreactivity
6 | QVQLVESGGGLVQAGGSLRLSCAATGSTFRKYAMGWYRQAPGKEREFVAAISSAGGRTYYADSVKGRFTISRDNAKNTVYLQMNSLKPEDTAVYYCNAYFRYSYDYWGQGTQVTVSS | high polyreactivity
7 | QVQLVESGGGLVQAGGSLRLSCAATGSTFYVNDMGWYRQAPGKERELVAAIDWTGGTTYYADSEKGRFTISRDNAKNTVYLQMNSLKPEDSAVYYCAVDDSTVDYDYWGQGTQVTVSS | low polyreactivity
8 | QVQLVESGGGLVQAGGSLRLSCAATGSTIPYYAMGWYRQAPGKERELVARITSGDRTYYADSVKGRFTISRDNAKNTVYLQMNSLKPEDTADYYCNAQVHYYSWYGYWGQGTQVTVSS | high polyreactivity
9 | QVQLVESGGGLVQAGGSLRLSCAATGSTRYYAMGWYRHAPGKERELVASIASIGGSTSYADSVKGRFTISRDNAKNTVYLQMNSLKPEDTAVYYCATRSLVYSARAAGLIQFDHWGQGTQVTVSS | low polyreactivity
10 | QVQLVESGGGLVQAGGSLRLSCAATRYTFSHYAMGCYRQAPGKERELVAAMSGSGGNTYYADSVKGRFTISRDHAKNTVYLQMNSLKPEDTAVYYCNADNEYRLGYWDDSWVQGTQVTVSS | low polyreactivity
11 | QVQLVESGGGLVQAGGSLRLSCAAYEFIFARNGMGWSRQAPGKERELVAAITNSGSTYADSVKGRFTISRDNAKNTVYLQMNSLKPEDTAVYYCNKDPGNVSSYNGGGYWGQGTQVTVSS | low polyreactivity
12 | QVQLVESGGGLVQAGGSLRLSCAAYGFIFLENDMGWYRQAPGKERELVASINSGSDTNYADSVKGRFTISRDNAKNTVYLQMNSLKPEDTAVYYCNASYNGVPARYDYWGQGTQVTVSS | low polyreactivity
13 | QVQLVESGGGLVQAGGSLRLSCAAYGFTFSWYAMGWYRQAPGKERELVAAISSSGGSTYYADSVKGRFTISRDNAKNTVYLQMNSLKPEDTAVYYCNAYRSASVVVGYDYWGQGTQVTVSS | high polyreactivity
14 | QVQLVESGGGLVQAGGSLRLSCAAYGGIFPAYAMGWYRQAPGKERELVAAISSSGRTYYADSVKGRFTISRDNAKNTVYLQMNSVKPEDTAVYYCAAYGGYRGWVFGSYGSWGQGTQVTVSS | high polyreactivity
15 | QVQLVESGGGLVQAGGSLRLSCAAYGIIFYLYAMGWYRTAPGKERELVAAITWNGGRTYYADSVKGRFTISRDNAKNTVYLQMNSLKPEDTAVYYCNTDRRWRGTYTTRYDYWGQGTQVTVSS | low polyreactivity
16 | QVQLVESGGGLVQAGGSLRLSCAAYGITFAYYVMGWYRQAPGKERELVAAISRSGSTYYADSVKGRFTISRDNAKITVYLQMNCLKPEDTAVYYCAVLYIRWYTYEYWGQGTQVTVSS | high polyreactivity
17 | QVQLVESGGGLVQAGGSLRLSCAAYGITFEVNAMGWYRQAPGKERELVAAINSSVASTYYADSVKGRFTISRDNAKNTVDLQMNSLKPEDTAVYYCAAQGKGGTEYGYGYWGQGTQVTVSS | low polyreactivity
18 | QVQLVESGGGLVQAGGSLRLSCAAYGLTFPWNAMGWYRQSPGKERELVAAITSRGGNTYYADSVKGRFTISRDNAKNTVYLQMNSLKPEDTAVYYCAARQYWSYRRYDYWGQGTQVTVSS | high polyreactivity
19 | QVQLVESGGGLVQAGGSLRLSCAAYGNTFEGYAKGWYRQAPGKERELVAAISGSSGSTYYADSVKGRFTISRDNAKNTVYLQMNSLKPEDTAVYYCAAYSYYPPYDYWGQGTQVTVSS | high polyreactivity
20 | QVQLVESGGGLVQAGGSLRLSCAAYGNTFSQYAKGWYRQAPGKERELVATISKSSGSTSYTDSVKGRFTISRDNAKNTVYLQLNSLKPEDSAVYYCNADSSDVYHHLGVLFFSTWYDYWGQGTLVTVSS | low polyreactivity
21 | QVQLVESGGGLVQAGGSLRLSCAAYGRIFAPNAMGWYRQAPGKERELVATISWSGGSTYYADSVNGRFTISRDNSKNYVYLQMNSLKPEDTAVYYCAGSNYQYGVISYDYWGKGTQVTVSS | low polyreactivity
22 | QVQLVESGGGLVQAGGSLRLSCAAYGRIFFRYAMGWYRQAPGKERELVATISSSGSTYYADSVKGRFTISRDNAKNTVYLQMNSLIPEDTAVYYCAATWTTRGLRHFVYNDYDYWGQGTQVTVSS | high polyreactivity

Row | Sequence | polyreactivity (PSR sort gate)
23 | QVQLVESGGGLVQAGGSLRLSCAAYGRIFWLYAMGWYRQAPGKERELVAVISWSGGTTYYADSVKGRFTISRDNAKNTVYLQMNSLKPEVTAVYYCAKQGWTSYDYWGQGTQVTVSS | low polyreactivity
24 | QVQLVESGGGLVQAGGSLRLSCAAYGRTFHAYAKGWYRQAPGKGRELVAAITRTGTTHYADSVKGRFTISRDNAKNTVYLQMNSLKPEDTAVYYCAAQHVRVDAQFVLQGYDYWGQGTQVTVSS | low polyreactivity
25 | QVQLVESGGGLVQAGGSLRLSCAAYGRTFLYNAMGWYRQAPGKERELVAAISSRGARTYYADSVKGRFTISRDNAKNTVYLQMNSLKPEDTAVYYCATDSYRYDGIQYLYEYYYWGQGTQVTVSS | high polyreactivity
26 | QVQLVESGGGLVQAGGSLRLSCAAYGRTFRLNAMGWYRQAPGKERELVAGIRVRAGTTYYADSVKGRFTISRDNAKNTVYLQMNSLKPEDTAVYYCAAESYSRSRKYDYWGQGTQVTVSS | high polyreactivity
27 | QVQLVESGGGLVQAGGSLRLSCAAYGRTFYGYAMGWYRQAPGKEREFFAAITWRGGSTYYADSVKGRFSISRDNAKNNVFLQMNSLKPEDTAVYYCAADYRVYTRYGLRKFDYWGQCTQVTVSS | high polyreactivity
28 | QVQLVESGGGLVQAGGSLRLSCAAYGRTIRRNAMGWYRQAPGKERELVAGISGSGTITYADSVKGRFTIARDNAKNTVYLQMNSLKPEDTAVYYCAARRKSFYTFYYWGQGTQVTVSS | high polyreactivity
29 | QVQLVESGGGLVQAGGSLRLSCAAYGRYYSRNPMGWYRQAPGKERELVAAITWRGGSTYYADSVKGRFTISRDNAKNTVFLQMISLKPEDTAVYYCNRDYRQYGYAYSGRYYWGHGTQVTVSS | high polyreactivity
30 | QVQLVESGGGLVQAGGSLRLSCAAYGSFFPYNAMGWYRQAPGKERELVAGITRRGGSTYYADSVKGRFTISRDNAKNTVYLQINSLKPVDTAVYYCGTEVTYPWHVDEGDYWGQGTQVTVSS | low polyreactivity
31 | QVQLVESGGGLVQAGGSLRLSCAAYGSIFDANAMGWYRQAPGKEREFLAAINCTGGSTYYAESVKGRFTISRDYAKNTVYLQMNILKPEDTAGYYCAAEWWYQNNPEIYYYWGQGIQVTVSS | high polyreactivity
32 | QVQLVESGGGLVQAGGSLRLSCAAYGSIFETYVMGWYRQAPGKERELVAAINSGGSTNYADSVKGRFTISRDNAKNTVYLQMNSLKPEDTAVYYCNADWFTPAQPWYRYFIRYDYWGQGTQVTVSS | low polyreactivity
33 | QVQLVESGGGLVQAGGSLRLSCAAYGSIFGGNAMGWYRQAPGKERELVARITDRGGSTDYADSVKGRFTISRDNAKNTVFLHMNSLKREDTAVYYCAKRGDRYEQRPRDYWGQGTQVTVSS | low polyreactivity
34 | QVQLVESGGGLVQAGGSLRLSCAAYGSIFGSYCMGWYRQAPGKERELVAAIRVSGGSTYYADSVKGRFTISRDNAKNTVYLQMNSLKPEDTAVYYCAARARSTPRKYYYTRGYWGQGSQVTVSS | high polyreactivity
35 | QVQLVESGGGLVQAGGSLRLSCAAYGSIFVWYDMGWYRQAPGKERELVATISLSGVSTYYADSVKGRFTISRDNAKNTVYLQMNCLKPEDSAVYYCAADFVEQGEDDYWGQGTQLTVSS | low polyreactivity
36 | QVQLVESGGGLVQAGGSLRLSCAAYGSTFPGYAMGWYRQAPGKERELVAAISASGGSTYYADSVKGRFTISRDNAKNTVYLQMISLIPEDTAVYFCAKVLSRGACADDYWGQGTQVTVSS | low polyreactivity
37 | QVQLVESGGGLVQAGGSLRLSCAAYGSTFYAYAMGWYRQAPGKERELVAAITYRDARTYYADSVKGRFTISRDNAKNTVYLQMISLKPEDTAVYYCARKTGFTVRRYDYWGQGTQVTVSS | high polyreactivity
38 | QVQLVESGGGLVQAGGSLRLSCAAYGSTLAGYAMGWYRQAPGKERELVAAIDWTGGSTTYADSVKGRFTISRDNAKNTVYLQMNSLKPEDTAVYYCNVDLGVNGDYWGQGSQVTVSS | low polyreactivity
39 | QVQLVESGGGLVQAGGSLRLSCAAYGSTLNRNVMGWYRQAPGKERELVAVITYGVGSTYYADSVKGRFTISRDNAKNTVYLQMNSLKPEDTAVYYCNKDPLVFDYWGQGTQVTVSS | low polyreactivity
40 | QVQLVESGGGLVQAGGSLRLSCADSGFIFRYNTMGWYRQAPGKERELVAAITSGDSTYYADSVKGRFTITRDNAKNTVYLQMNSLKPEDTEVYYCAARPYSGRNKYDYWGQGTQVTVSS | high polyreactivity
41 | QVQLVESGGGLVQAGGSLRLSCADSGFIFYDYTMGWYRQAPGKERELVAVISRGGSTYYADSVKGRFTISRDNAKNTVYLQMNSLNPEDSAVYYCAARPRWYTFTRQEYDYWGQGTQVTVSS | high polyreactivity
42 | QVQLVESGGGLVQAGGSLRLSCADSGFIIFCYAMGWYRQAPGKERELVAAITSGGSTYYAYSVKGRFTISRDNAKNTVYLQMNSLKPEDTAVYYCAAVRWYGSKRYGYWGQGTQVTVSS | high polyreactivity
43 | QVQLVESGGGLVQAGGSLRLSCADSGFNFYQYAMGWYRQAPGKERELVAVISGSGSRTYYADSVKGRFTISRDNAKNTVYLQMNSLKPEDTAVYYCAAKGVIISYDTLRYDSWGQGTQVTVSS | high polyreactivity

From the nanobody polyreactivity screen of Harvey et al. (2022)
